{"source": "patent US20240034801A1", "about": "(BEIJING HANMI PHARMACEUTICAL, published 2024)", "key": {"[1]": {"target": "T1, recombinant human PD-L1 (Sino Biological Inc., catalog number 100 84-H08H) (human, UniProt Q9NZQ7 19-239)", "T1 construct": "Bought protein coated on the ELISA plate", "T1 sequence (Q9NZQ7 19-239 limits assumed)": "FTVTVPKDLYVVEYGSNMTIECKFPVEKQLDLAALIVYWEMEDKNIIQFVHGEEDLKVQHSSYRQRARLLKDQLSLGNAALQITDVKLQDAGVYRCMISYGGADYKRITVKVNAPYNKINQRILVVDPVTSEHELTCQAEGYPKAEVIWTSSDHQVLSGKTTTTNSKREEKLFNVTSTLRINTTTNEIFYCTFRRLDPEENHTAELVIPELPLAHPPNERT", "experiment": "ELISA, recombinant human PD-L1 coated (FIG. 8A)", "experimental": "(§1) The detailed process is as follows: a 96-well high-adsorption ELISA plate (Costar, catalog number 42592) was coated with 1 μg/mL recombinant human PD-L1 (Sino Biological Inc., catalog number 100 84-H08H) or human 4-1BB (Sino Biological Inc., catalog number 10041-H08H) at 100 μL per well using carbonate buffer solution, pH=9.6 at 4° C. overnight. The plate was wash 5 times with PBST, and then blocked using PBST with 1% BSA 300 μL/well and incubated at 25° C. for 1 hour, and then washed 5 times with PBST. The heterodimeric antibody samples serially diluted in PBST with 1% BSA and the control were added, 100 μL per well and incubated at 25° C. for 1 hour. The plate was washed 5 times with PBST. The horseradish peroxidase-labeled anti-human IgG antibody (Chemicon, catalog number AP309P) diluted 1:10000 in PBST with 1% BSA was then added, 100 μL per well, and incubated at 25° C. for 1 hour. The plate was […] with PBST. The colorimetric substrate TMB was added, 100 μL/well, and developed at room temperature for 10 minutes. 1 M H₂SO₄, was added, 100 μL/well, to stop the development. The absorbance at 450 nm was read on a microplate reader."}, "[2]": {"target": "T2, recombinant human 4-1BB (Sino Biological Inc., catalog number 10041-H08H) (human, UniProt Q07011 24-186)", "T2 construct": "Bought protein coated on the ELISA plate", "experiment": "ELISA, human 4-1BB coated (FIG. 8B; assay format inferred from the order of the methods)", "experimental": "as §1"}}, "data": [{"binder": "anti-PD-L1/anti-4-1BB heterodimeric antibody BH3120h (bispecific antibody, human IgG1, kappa, N297A, also called anti-PD-L1/anti-4-1BB bispecific antibody; anti-PD-L1/anti-4-1BB heterodimeric antibody molecule) heavy 1: not shown light 1: DIQMTQSPSSLSASVGDRVTITCKASQDVHTAVAWIQQKPGKSPKLLIYSASNRYTGVPSRFSGSGSGTDFTFTISSLQPEDIATYYCQQHYITPLTFGQGTKLEIKRTVAAPSVFIFPPSDEQLKSGTASVVCLLNNFYPREAKVQWKVDNALQSGNSQESVTEQDSKDSTYSLSSTLTLSKADYEKHKVYACEVTHQGLSSPVTKSFNRGEC heavy 2: QVQLVQSGAEVKKPGSSVKVSCKASGYTFTSYWINWVRQAPGQGLEWMGNIYPSDSYTNYNQKFKDRVTITADKSTSTAYMELSSLRSEDTAVYYCARLYYGSSPFDYWGQGTTVTVSSASTKGPSVFPLAPSSKSTSGGTAALGCLVKDYFPEPVTVSWNSGALTSGVHTFPAVLQSSGLYSLSSVVTVPSSSLGTQTYICNVNHKPSNTKVDKKVEPKSCDKTHTCPPCPAPELLGGPSVFLFPPKPKDTLMISRTPEVTCVVVDVSHEDPEVKFNWYVDGVEVHNAKTKPREEQYASTYRVVSVLTVLHQDWLNGKEYKCKVSNKALPAPIEKTISKAKGQPREPQVYTEPPSRDELTKNQVSLTCLVKGFYPSDIAVEWESNGQPENNYKTTPPVLDSDGSFFLLSVLTVDKSRWQQGNVFSCSVMHEALHNHYTQKSLSLSPGK light 2: not shown", "values": [{"measurement": "binding result", "setting": "[1]", "value": "binds"}, {"measurement": "binding result", "setting": "[2]", "value": "binds"}]}]}
